According to article PMC7133447:
pKd: −log10 of the molar value.

What was measured:
[1] = target: T1, epithelial cell adhesion molecule (EpCAM) on MDA-MB-231 cells (human) (UniProt P16422); test: flow cytometry (MDA-MB-231 cells); conditions: Live-cell flow cytometry, 5e5 cells, 0-400 nM aptamer, PBS with 10% FCS, 0.1 mg/mL tRNA, 0.1 mg/mL BSA, 60 min, 37 C, aptamer folded in PBS with 5 mM MgCl2
T1 sequence: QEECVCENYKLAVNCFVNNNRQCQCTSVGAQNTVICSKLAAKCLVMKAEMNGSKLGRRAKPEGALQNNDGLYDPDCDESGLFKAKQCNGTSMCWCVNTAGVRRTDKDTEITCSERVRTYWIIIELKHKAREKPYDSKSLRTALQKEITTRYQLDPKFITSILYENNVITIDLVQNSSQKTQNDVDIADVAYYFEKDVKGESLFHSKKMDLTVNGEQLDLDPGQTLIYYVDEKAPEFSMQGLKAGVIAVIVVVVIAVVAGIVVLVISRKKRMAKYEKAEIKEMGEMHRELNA

[2] = target: transferrin receptor (TfR) on bEnd.3 cells (mouse) (UniProt Q62351); test: flow cytometry (bEnd.3 cells); conditions: Live-cell flow cytometry, 5e5 cells, 0-400 nM aptamer, PBS with 10% FCS, 0.1 mg/mL tRNA, 0.1 mg/mL BSA, 60 min, 37 C, aptamer folded in PBS with 5 mM MgCl2
Chain of transferrin receptor (TfR) on bEnd.3 cells (mouse) (Q62351 whole entry): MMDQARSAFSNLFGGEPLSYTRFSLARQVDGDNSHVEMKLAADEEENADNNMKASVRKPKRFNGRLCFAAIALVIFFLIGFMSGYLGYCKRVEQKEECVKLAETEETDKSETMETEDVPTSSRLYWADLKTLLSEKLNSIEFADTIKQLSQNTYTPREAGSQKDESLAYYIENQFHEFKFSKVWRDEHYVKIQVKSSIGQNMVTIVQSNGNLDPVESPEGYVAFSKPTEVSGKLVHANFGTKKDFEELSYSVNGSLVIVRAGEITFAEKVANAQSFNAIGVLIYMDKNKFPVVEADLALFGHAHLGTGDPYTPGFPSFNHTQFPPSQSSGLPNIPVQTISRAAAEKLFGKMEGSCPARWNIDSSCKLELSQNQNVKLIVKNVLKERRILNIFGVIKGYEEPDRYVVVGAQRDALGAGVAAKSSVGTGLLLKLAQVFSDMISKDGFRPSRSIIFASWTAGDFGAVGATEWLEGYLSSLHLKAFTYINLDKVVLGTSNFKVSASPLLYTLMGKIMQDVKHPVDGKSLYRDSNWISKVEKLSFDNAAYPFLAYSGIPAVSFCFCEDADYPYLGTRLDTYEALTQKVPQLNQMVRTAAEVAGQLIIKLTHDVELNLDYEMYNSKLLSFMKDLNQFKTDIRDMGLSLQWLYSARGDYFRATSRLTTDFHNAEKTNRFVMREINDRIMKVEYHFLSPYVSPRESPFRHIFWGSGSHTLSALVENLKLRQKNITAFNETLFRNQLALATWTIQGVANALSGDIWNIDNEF

[3] = target: transferrin receptor (TfR) / EpCAM on 4T1 cells (mouse) (UniProt Q62351); test: flow cytometry (4T1 cells); conditions: Live-cell flow cytometry, 5e5 cells, 0-400 nM aptamer, PBS with 10% FCS, 0.1 mg/mL tRNA, 0.1 mg/mL BSA, 60 min, 37 C; aptamer folded in PBS with 5 mM MgCl2
Chain of transferrin receptor (TfR) / EpCAM on 4T1 cells (mouse) (Q62351 whole entry): as above

[4] = doxorubicin intercalated (non-covalent, about 2-3 per aptamer)

| Sequence | pKd ([1]; cited from earlier work) | pKd ([2]; cited from earlier work) | pKd [3] | pKd [1, 4] | pKd [2, 4] |
| --- | --- | --- | --- | --- | --- |
| GCGCGTGCACGCGCTAACGGATTCCTTTTCCGT [TENN] | < 5.00 | < 5.00 | – | – | – |
| GCGCGGTACCGCGCTAACGGAGGTTGCGTCCGT [TEPP] | 7.07 | 6.96 | 7.56 | – | – |
| GCGCGTGCACGCGCTAACGGATTCCTTTTCCGT [TENN-DOX] | – | – | – | < 5.00 | 6.06 |
| GCGCGGTACCGCGCTAACGGAGGTTGCGTCCGT [TEPP-DOX] | – | – | – | 6.27 | 6.92 |
